Source: EP4138793B1, “NOVEL NON-PROTEINIC FURIN INHIBITOR” (priority 2020, dated 2021)
The star is where a group is joined. Decanoyl = CCCCCCCCCC(=O)*; CH2Cl = ClC*

Molecular target: furine humaine recombinante (Homo sapiens, UniProt P09958)
Experiment: Inhibition of furin enzyme activity (cleavage of a fluorescent substrate)
Type: biochemical
Details: reference inhibitor tested at 100 nm
Procedure: L'expérience est réalisée en utilisant une furine humaine recombinante, qui catalyse le clivage d'un substrat spécifique fluorescent.
Le décanoyl-Arg-Val-Lys-Arg-CMK à 100 nm a été utilisé comme inhibiteur de référence de l'activité de la furine.
La furine est pré-incubée pendant 10 minutes à température ambiante en l'absence (contrôle) ou en présence du produit de référence ou de concentrations croissantes du composé testé : «Amyrines purifiées de Protium heptaphyllum»; 25 ppm; 250 ppm et 1000 ppm (v / v). Le produit «Amyrines purifiées de Protium heptaphyllum» , AMY à 1000 PPM correspond à une solution 0,5% en volume du produit HTRE commercialisé par la société Ephyla.
À la fin de l'étape de pré-incubation, un substrat de furine a été ajouté et les conditions expérimentales ont été incubées à nouveau à température ambiante à l'abri de la lumière pendant 5 minutes. Toutes les expériences ont été réalisées en triplicate.
Le composé d'essai " Amyrines purifiées de Protium heptaphyllum " pré-solubilisé à 10 000 ppm dans du DMSO. La solution a ensuite été diluée dans du tampon d'essai afin d'atteindre les concentrations décrite ci-dessus.
Le clivage du substrat fluorescent de furine a été suivi pendant 5 minutes après l'addition du substrat en lisant la fluorescence à 485 nm / 535 nm.
Les résultats sont exprimés en RFU (unités fluorescentes relatives) +/- S.D. (Écart-type).

Sequence of furine humaine recombinante (P09958 108-794): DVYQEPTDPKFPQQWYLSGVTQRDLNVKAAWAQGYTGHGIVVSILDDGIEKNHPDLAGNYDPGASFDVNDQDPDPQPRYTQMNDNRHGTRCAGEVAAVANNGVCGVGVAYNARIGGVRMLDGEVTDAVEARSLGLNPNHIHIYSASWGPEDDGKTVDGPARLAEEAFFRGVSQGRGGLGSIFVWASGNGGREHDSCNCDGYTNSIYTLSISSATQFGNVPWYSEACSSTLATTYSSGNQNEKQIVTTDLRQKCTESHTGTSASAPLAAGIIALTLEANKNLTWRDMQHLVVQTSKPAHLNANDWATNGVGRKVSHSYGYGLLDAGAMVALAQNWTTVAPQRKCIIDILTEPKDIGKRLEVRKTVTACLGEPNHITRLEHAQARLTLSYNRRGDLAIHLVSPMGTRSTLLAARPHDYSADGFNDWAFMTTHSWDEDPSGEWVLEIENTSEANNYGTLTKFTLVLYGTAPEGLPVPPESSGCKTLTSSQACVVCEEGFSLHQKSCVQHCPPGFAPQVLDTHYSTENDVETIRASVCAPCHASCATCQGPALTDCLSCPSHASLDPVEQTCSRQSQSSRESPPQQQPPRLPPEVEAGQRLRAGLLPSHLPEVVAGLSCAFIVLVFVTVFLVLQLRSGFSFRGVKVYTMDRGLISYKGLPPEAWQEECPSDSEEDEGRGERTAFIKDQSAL

Decanoyl-Arg-Val-Lys-Arg-CMK (Decanoyl-RVKR-CH2Cl)
inhibition de l'activité de la furine: 97,9%
